Substitutions are numbered along the chain they refer to. Blank lines part the entries; values can stand above or below the molecule they belong to.
Legend:
[1] = biological target: PlexA_(ecto) (Drosophila melanogaster) (UniProt Q9V491); test: AUC; sedimentation velocity, 15 mM HEPES pH 7.4, 150 mM NaCl, 40,000 rpm; PlexA1‐4 at 33 μM, PlexA_(ecto) at 2.2 μM
PlexA‐mClover = biological target: T1, PlexA‐mClover (Drosophila melanogaster, UniProt Q9V491 28-1311); test: FRET or BRET; FRET-FLIM in live COS-7 cells transiently co-transfected with PlexA‐mClover (donor) and semaphorin‐mRuby2 (acceptor), cis on one cell surface, 37°C; donor alone τav 2.72 ± 0.03 ns; settings: partners not purified
T1 construct: Plexin A (PlexA), Drosophila melanogaster, residues 28–1,311: ectodomain followed by a transmembrane segment; not the purified PlexA‐mClover (residues 67–1,274) used as donor-only control in solution; also called FRET donor PlexA‐mClover; source: COS-7, transiently transfected, on live cells; not shown: mClover, C-terminal, kept
T1 sequence (looked up): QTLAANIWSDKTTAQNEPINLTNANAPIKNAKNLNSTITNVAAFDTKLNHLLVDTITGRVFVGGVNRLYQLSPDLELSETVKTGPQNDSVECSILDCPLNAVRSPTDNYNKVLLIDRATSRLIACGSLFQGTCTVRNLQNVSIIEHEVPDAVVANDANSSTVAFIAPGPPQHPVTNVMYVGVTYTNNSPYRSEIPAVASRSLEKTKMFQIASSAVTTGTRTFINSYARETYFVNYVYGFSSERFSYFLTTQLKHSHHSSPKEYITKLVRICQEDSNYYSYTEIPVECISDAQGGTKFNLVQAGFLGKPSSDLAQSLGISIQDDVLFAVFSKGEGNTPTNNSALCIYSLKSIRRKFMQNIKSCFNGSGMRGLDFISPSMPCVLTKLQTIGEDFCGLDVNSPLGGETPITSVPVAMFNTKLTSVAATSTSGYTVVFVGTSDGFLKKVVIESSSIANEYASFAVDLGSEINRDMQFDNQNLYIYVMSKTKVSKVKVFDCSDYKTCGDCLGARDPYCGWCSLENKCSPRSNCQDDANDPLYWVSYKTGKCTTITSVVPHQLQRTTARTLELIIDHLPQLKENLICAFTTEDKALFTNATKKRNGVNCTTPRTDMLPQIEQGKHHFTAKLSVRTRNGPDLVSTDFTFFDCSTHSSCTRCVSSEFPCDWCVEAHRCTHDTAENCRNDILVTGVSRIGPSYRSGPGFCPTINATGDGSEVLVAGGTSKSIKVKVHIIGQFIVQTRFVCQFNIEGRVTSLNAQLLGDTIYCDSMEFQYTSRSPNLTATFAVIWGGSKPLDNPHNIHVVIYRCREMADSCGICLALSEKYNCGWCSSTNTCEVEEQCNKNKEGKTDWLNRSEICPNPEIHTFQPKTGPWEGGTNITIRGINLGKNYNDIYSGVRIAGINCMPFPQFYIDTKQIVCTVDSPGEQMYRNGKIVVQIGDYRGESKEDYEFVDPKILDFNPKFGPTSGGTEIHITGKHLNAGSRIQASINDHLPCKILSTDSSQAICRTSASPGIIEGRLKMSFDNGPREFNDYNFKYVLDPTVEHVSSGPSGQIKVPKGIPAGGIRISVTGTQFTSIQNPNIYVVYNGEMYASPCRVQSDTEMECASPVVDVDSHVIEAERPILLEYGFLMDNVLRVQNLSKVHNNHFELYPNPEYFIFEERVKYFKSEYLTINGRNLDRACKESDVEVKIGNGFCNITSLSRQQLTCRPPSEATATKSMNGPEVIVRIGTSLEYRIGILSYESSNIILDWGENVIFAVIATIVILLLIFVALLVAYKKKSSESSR

PlexA1‐4‐mVenus [2] = biological target: T2, PlexA1‐4‐mVenus (Drosophila melanogaster, UniProt Q9V491 28-730); test: MST; fluorescent PlexA1‐4‐mVenus kept constant, unlabelled Sema1b_(ecto) or mutants titrated; 28°C, 15 mM HEPES pH 7.4, 150 mM NaCl, 2 mM CaCl2, 0.05% Tween‐20; 80% MST power; settings: both partners purified
T2 construct: Plexin A (PlexA), Drosophila melanogaster, domains 1-4, residues 28–730; monoVenus follows PlexA1-4 and is followed by the His6 tag; source: HEK 293T, transient transfection, purified (HisTrap, SEC); not shown: mVenus, C-terminal, kept
T2 sequence (looked up): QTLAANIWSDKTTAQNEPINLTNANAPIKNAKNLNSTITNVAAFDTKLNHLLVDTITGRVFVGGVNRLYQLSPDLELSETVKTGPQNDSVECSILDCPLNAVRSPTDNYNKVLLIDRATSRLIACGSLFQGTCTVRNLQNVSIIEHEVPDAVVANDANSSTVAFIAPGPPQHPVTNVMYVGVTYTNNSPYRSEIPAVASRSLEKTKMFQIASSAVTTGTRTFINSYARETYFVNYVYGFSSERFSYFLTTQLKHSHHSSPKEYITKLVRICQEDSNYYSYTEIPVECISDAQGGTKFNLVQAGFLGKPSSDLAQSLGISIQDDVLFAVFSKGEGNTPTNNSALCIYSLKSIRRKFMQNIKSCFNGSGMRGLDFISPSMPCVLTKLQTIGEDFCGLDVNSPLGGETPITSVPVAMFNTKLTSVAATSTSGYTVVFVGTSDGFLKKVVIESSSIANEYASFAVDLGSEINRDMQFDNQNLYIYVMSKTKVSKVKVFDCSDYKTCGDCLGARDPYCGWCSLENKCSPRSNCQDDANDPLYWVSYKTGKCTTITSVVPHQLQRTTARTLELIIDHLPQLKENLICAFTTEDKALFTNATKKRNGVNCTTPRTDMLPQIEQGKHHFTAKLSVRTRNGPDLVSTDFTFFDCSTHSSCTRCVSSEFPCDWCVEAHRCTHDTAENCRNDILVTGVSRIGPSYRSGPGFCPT

PlexA1‐4‐mVenus [3] = biological target: T3, PlexA1‐4‐mVenus (Drosophila melanogaster, UniProt Q9V491 28-730); test: MST
T3 chain: T2 sequence (looked up)

stoichiometry N [1]: < 4
Molecule: PlexA_(ecto) (from UniProt Q9V491 28-1272) (domain or fragment)

average donor lifetime (τav) (PlexA‐mClover): 2.51 ± 0.06 ns
average fraction of the interacting donor (fD) (PlexA‐mClover): 0.26 ± 0.09
B1: Sema1b‐mRuby2 (ligand, Drosophila melanogaster, UniProt Q7KK54 37-686, looked up)
chain: DVKPDLQTKQDKVLAHFIGNSTDYFKILDHNDEFVLVGAKDVIYNVSLNGLKEIARLEWHSTDADRELCALKGKHEWDCHNYLRVYALRPNGEVLLCGTNSYKPRCRHYTPVEVSSEEAGSAGHAHAMRYEVSRDVEAQGLCPYSPAHNSTYAFADGHLYSATVADFSGGDPLIYRENLRTEQYDLKQLNQPDFVGAIERNGYVLFFFRELSMEVMNFGKAVYSRVARVCKNDRGGPYSHGKSWTSFLKARLNCSVPGEFPFYFDEIQAISPIVESGSKSLIYAVFTTSVNAIPGSAVCAFNVDDILAAFDGEFKSQKDSQSHWLPVEREQVPKPRPGQCVEDSRTLTSIAVNFIKNHPLMEEAVPAVHGRPLLTKVNLHHRLTAIAVHPQVKSLSGAYYDVIYSGTDDGKVTKFINILSTHPNSTVDRLKTVVISEMQVLPLGTPIRELVISTSKNSLVVVSDGSLVSVPLHHCSHIVDCLGCLSLQDPICAWDLQTHECKNLATSQHKFGTKTYLQSLNSTKKAAALLCPHIPRDAPGAETVSFVTMAPPPTEEQKLLYSNVGSSQGNQPSLEQQPTGGDDFGLNKITLTSMDPDDIMPNLNDPQKSTASVDEIKYASTPSFMLLTTIVFFTFLVGGIAGICCVKAKS
notes: Semaphorin 1b (Sema1b), Drosophila melanogaster, residues 37–686: ectodomain followed by a transmembrane segment; also called wild‐type Sema1b‐mRuby2; source: COS-7, transiently transfected, on live cells; not shown: mRuby2, C-terminal, kept

average donor lifetime (τav) (PlexA‐mClover): 2.43 ± 0.1 ns
average fraction of the interacting donor (fD) (PlexA‐mClover): 0.37 ± 0.15
B2: Sema1b‐mutA‐mRuby2 (ligand, Drosophila melanogaster, UniProt Q7KK54 37-686, looked up)
chain: B1 chain with F167E, Q183R, K187E
notes: Semaphorin 1b (Sema1b), Drosophila melanogaster, residues 37–686, site A mutant; source: COS-7, transiently transfected, on live cells; not shown: mRuby2, C-terminal, kept

average donor lifetime (τav) (PlexA‐mClover): 2.53 ± 0.04 ns
average fraction of the interacting donor (fD) (PlexA‐mClover): 0.21 ± 0.07
B3: Sema1b‐mutB‐mRuby2 (ligand, Drosophila melanogaster, UniProt Q7KK54 37-686, looked up)
chain: DVKPDLQTKQDKVLAHFIGNSTDYFKILDHNDEFVLVGAKDVIYNVSLNGLKEIARLEWHSTDADRELCALKGKHEWDCHNYLRVYALRPNGEVLLCGTNSYKPRCRHYTPVEVSSEEAGSAGHAHAMRYEVSRDVEAQGLCPYSPAHNSTYAFADGHLYSATVADFSGGDPLIYRENLRTEQYDLKQLNQPDFVGAIERNGYVLFFFRELSMEVMNFGKAVYSRVARVCKNDRGGPYSHGKSWTSFLKARLNCSVPGEFPFYFDEIQAISPIVESGSKSLIYAVFTTSVNAIPGSAVCAFNVDDILAAFDGEAAAAAAAAAAAAAAAAAAVPKPRPGQCVEDSRTLTSIAVNFIKNHPLMEEAVPAVHGRPLLTKVNLHHRLTAIAVHPQVKSLSGAYYDVIYSGTDDGKVTKFINILSTHPNSTVDRLKTVVISEMQVLPLGTPIRELVISTSKNSLVVVSDGSLVSVPLHHCSHIVDCLGCLSLQDPICAWDLQTHECKNLATSQHKFGTKTYLQSLNSTKKAAALLCPHIPRDAPGAETVSFVTMAPPPTEEQKLLYSNVGSSQGNQPSLEQQPTGGDDFGLNKITLTSMDPDDIMPNLNDPQKSTASVDEIKYASTPSFMLLTTIVFFTFLVGGIAGICCVKAKS
notes: Semaphorin 1b (Sema1b), Drosophila melanogaster, residues 37–686, loop 350–367 replaced by alanines; source: COS-7, transiently transfected, on live cells; not shown: mRuby2, C-terminal, kept

binding result (PlexA1‐4‐mVenus [2]): binds
Kd (PlexA1‐4‐mVenus [3]): 586 nM
B4: Sema1b_(ecto) (domain or fragment, Drosophila melanogaster, UniProt Q7KK54 37-659, looked up)
chain: DVKPDLQTKQDKVLAHFIGNSTDYFKILDHNDEFVLVGAKDVIYNVSLNGLKEIARLEWHSTDADRELCALKGKHEWDCHNYLRVYALRPNGEVLLCGTNSYKPRCRHYTPVEVSSEEAGSAGHAHAMRYEVSRDVEAQGLCPYSPAHNSTYAFADGHLYSATVADFSGGDPLIYRENLRTEQYDLKQLNQPDFVGAIERNGYVLFFFRELSMEVMNFGKAVYSRVARVCKNDRGGPYSHGKSWTSFLKARLNCSVPGEFPFYFDEIQAISPIVESGSKSLIYAVFTTSVNAIPGSAVCAFNVDDILAAFDGEFKSQKDSQSHWLPVEREQVPKPRPGQCVEDSRTLTSIAVNFIKNHPLMEEAVPAVHGRPLLTKVNLHHRLTAIAVHPQVKSLSGAYYDVIYSGTDDGKVTKFINILSTHPNSTVDRLKTVVISEMQVLPLGTPIRELVISTSKNSLVVVSDGSLVSVPLHHCSHIVDCLGCLSLQDPICAWDLQTHECKNLATSQHKFGTKTYLQSLNSTKKAAALLCPHIPRDAPGAETVSFVTMAPPPTEEQKLLYSNVGSSQGNQPSLEQQPTGGDDFGLNKITLTSMDPDDIMPNLNDPQKSTASVDEIKYASTPS
notes: Semaphorin 1b (Sema1b), Drosophila melanogaster, ectodomain, residues 37–659; pHLsec vector; monomer in solution according to the authors' earlier work; also called Sema1b ectodomain; wild-type Sema1b_(ecto); source: HEK 293T, transient transfection, purified from conditioned medium (HisTrap, SEC)

binding result (PlexA1‐4‐mVenus [2]): binds
B5: Sema1b_(ecto)‐mutA (domain or fragment, Drosophila melanogaster, UniProt Q7KK54 37-659, looked up)
chain: B4 chain with F167E, Q183R, K187E
notes: Semaphorin 1b (Sema1b), Drosophila melanogaster, ectodomain, residues 37–659, site A mutant; also called Sema1b‐mutA; Sema1b‐mutant A; source: HEK 293T, transient transfection, purified (HisTrap, SEC)

binding result (PlexA1‐4‐mVenus [2]): binds
B6: Sema1b_(ecto)‐mutB (domain or fragment, Drosophila melanogaster, UniProt Q7KK54 37-659, looked up)
chain: DVKPDLQTKQDKVLAHFIGNSTDYFKILDHNDEFVLVGAKDVIYNVSLNGLKEIARLEWHSTDADRELCALKGKHEWDCHNYLRVYALRPNGEVLLCGTNSYKPRCRHYTPVEVSSEEAGSAGHAHAMRYEVSRDVEAQGLCPYSPAHNSTYAFADGHLYSATVADFSGGDPLIYRENLRTEQYDLKQLNQPDFVGAIERNGYVLFFFRELSMEVMNFGKAVYSRVARVCKNDRGGPYSHGKSWTSFLKARLNCSVPGEFPFYFDEIQAISPIVESGSKSLIYAVFTTSVNAIPGSAVCAFNVDDILAAFDGEAAAAAAAAAAAAAAAAAAVPKPRPGQCVEDSRTLTSIAVNFIKNHPLMEEAVPAVHGRPLLTKVNLHHRLTAIAVHPQVKSLSGAYYDVIYSGTDDGKVTKFINILSTHPNSTVDRLKTVVISEMQVLPLGTPIRELVISTSKNSLVVVSDGSLVSVPLHHCSHIVDCLGCLSLQDPICAWDLQTHECKNLATSQHKFGTKTYLQSLNSTKKAAALLCPHIPRDAPGAETVSFVTMAPPPTEEQKLLYSNVGSSQGNQPSLEQQPTGGDDFGLNKITLTSMDPDDIMPNLNDPQKSTASVDEIKYASTPS
notes: Semaphorin 1b (Sema1b), Drosophila melanogaster, ectodomain, residues 37–659, Exβ1‐β2 loop 350–367 replaced by alanines; synthetic clone (Invitrogen-GeneArt); also called Sema1b‐mutB; Sema1b‐mutant B; source: HEK 293T, transient transfection, purified (HisTrap, SEC)
